{"source": "paper PMC7873046", "about": "“Structure of the Complete Dimeric Human GDAP1 Core Domain Provides Insights into Ligand Binding and Clustering of Disease Mutations” (Frontiers in Molecular Biosciences, 2021)", "molecules": {"B1": {"name": "GDAP1∆295-358 (domain or fragment, human, UniProt Q8TB36 1-294, looked up)", "chain": "MAERQEEQRGSPPLRAEGKADAEVKLILYHWTHSFSSQKVRLVIAEKALKCEEHDVSLPLSEHNEPWFMRLNSTGEVPVLIHGENIICEATQIIDYLEQTFLDERTPRLMPDKESMYYPRVQHYRELLDSLPMDAYTHGCILHPELTVDSMIPAYATTRIRSQIGNTESELKKLAEENPDLQEAYIAKQKRLKSKLLDHDNVKYLKKILDELEKVLDQVETELQRRNEETPEEGQQPWLCGESFTLADVSLAVTLHRLKFLGFARRNWGNGKRPNLETYYERVLKRKTFNKVLG", "notes": "The constructs were put into pTH27 (N-terminal His6) and pDEST-Trx (N-terminal thioredoxin); also called ganglioside-induced differentiation-associated protein 1, C-terminally truncated; GDAP1 core domain; source: E. coli BL21 (DE3), purified (Ni-NTA, TEV cleavage, SEC); not shown: His6, N-terminal, cleaved"}, "B2": {"name": "GDAP1∆303-358 Y29F (domain or fragment, human, UniProt Q8TB36 1-302, looked up)", "chain": "MAERQEEQRGSPPLRAEGKADAEVKLILFHWTHSFSSQKVRLVIAEKALKCEEHDVSLPLSEHNEPWFMRLNSTGEVPVLIHGENIICEATQIIDYLEQTFLDERTPRLMPDKESMYYPRVQHYRELLDSLPMDAYTHGCILHPELTVDSMIPAYATTRIRSQIGNTESELKKLAEENPDLQEAYIAKQKRLKSKLLDHDNVKYLKKILDELEKVLDQVETELQRRNEETPEEGQQPWLCGESFTLADVSLAVTLHRLKFLGFARRNWGNGKRPNLETYYERVLKRKTFNKVLGHVNNILIS", "notes": "Point mutant of m2, made by site-directed mutagenesis PCR; source: E. coli BL21 (DE3), purified (Ni-NTA, TEV cleavage, SEC); not shown: His6, N-terminal, cleaved"}, "B3": {"name": "GDAP1∆303-358 (domain or fragment, human, UniProt Q8TB36 1-302, looked up)", "chain": "B2 chain with F29Y", "notes": "The constructs were put into pTH27 (N-terminal His6) and pDEST-Trx (N-terminal thioredoxin); Tag cleaved with TEV protease; also called complete human GDAP1 core domain; source: E. coli BL21 (DE3), purified (Ni-NTA, TEV cleavage, SEC); not shown: His6, N-terminal, cleaved"}, "B4": {"name": "GDAP1∆319-358 (domain or fragment, human, UniProt Q8TB36 1-318, looked up)", "chain": "MAERQEEQRGSPPLRAEGKADAEVKLILYHWTHSFSSQKVRLVIAEKALKCEEHDVSLPLSEHNEPWFMRLNSTGEVPVLIHGENIICEATQIIDYLEQTFLDERTPRLMPDKESMYYPRVQHYRELLDSLPMDAYTHGCILHPELTVDSMIPAYATTRIRSQIGNTESELKKLAEENPDLQEAYIAKQKRLKSKLLDHDNVKYLKKILDELEKVLDQVETELQRRNEETPEEGQQPWLCGESFTLADVSLAVTLHRLKFLGFARRNWGNGKRPNLETYYERVLKRKTFNKVLGHVNNILISAVLPTAFRVAKKRAPK", "notes": "The constructs were put into pTH27 (N-terminal His6) and pDEST-Trx (N-terminal thioredoxin); Tag cleaved with TEV protease; also called ganglioside-induced differentiation-associated protein 1, C-terminally truncated; source: E. coli BL21 (DE3), purified (Ni-NTA, TEV cleavage, SEC); not shown: His6, N-terminal, cleaved"}}, "key": {"[1]": {"biological_target": "T1, GDAP1∆295-358 (Homo sapiens, UniProt Q8TB36)", "T1 construct": "C-terminally truncated (residues 295-358 deleted), alpha-loop insertion kept; N-terminal tag cut with TEV; E. coli BL21(DE3); monomer/dimer equilibrium", "T1 sequence (Q8TB36 1-294)": "B1 chain", "test": "isothermal titration calorimetry", "type": "binding", "source_text": "isothermal titration calorimetry on GDAP1∆295-358"}, "[2]": {"biological_target": "T2, GDAP1∆319-358 (Homo sapiens, UniProt Q8TB36)", "T2 construct": "C-terminally truncated (residues 319-358 deleted; hydrophobic and transmembrane region), alpha-loop insertion kept; N-terminal tag cut with TEV; E. coli BL21(DE3); monomer/dimer equilibrium", "T2 sequence (Q8TB36 1-318)": "B4 chain", "test": "differential scanning fluorimetry (SYPRO Orange)", "type": "binding", "settings": "pH 7.5, 300 mM NaCl, 2% DMSO; HA titrated up to 250 µM"}, "[3]": {"biological_target": "the molecule itself", "test": "SEC-SAXS; 50 µL of protein at 8.5-10 mg/ml injected into BioSEC3-300 or Superdex 75 10/300 GL increase; 25 mM HEPES pH 7.5, 300 mM NaCl; +15 °C; GDAP1∆295-358 and GDAP1∆319-358 also with hexadecanedioic acid (HA), which gave a higher monomer fraction"}, "[4]": {"biological_target": "the molecule itself", "test": "non-reducing SDS-PAGE; SEC eluates of purified proteins on a non-reducing gel (GDAP1L1 also on a reducing gel); shows the covalent (disulfide) dimer"}, "[5]": {"biological_target": "the molecule itself", "test": "SEC-MALS; Superdex 75 10/300 GL increase in SEC buffer (25 mM HEPES pH 7.5, 300 mM NaCl); protein 1-10 mg/ml, 15-150 µg injected"}}, "note": "Changes are numbered by the printed parent chain."}
{"molecule": "O=C(O)CCCCCCCCCCCCCCC(=O)O", "note": "[hexadecanedioic acid]", "values": [{"measurement": "Kd", "setting": "[1]", "value": "2000 ± 800", "unit": "nM"}, {"measurement": "dTm", "setting": "[2]", "value": "~ 3 °C"}]}
{"molecule": "B1", "values": [{"measurement": "stoichiometry N", "setting": "[3]", "value": 2}]}
{"molecule": "B2", "values": [{"measurement": "stoichiometry N", "setting": "[4]", "value": 2}]}
{"molecule": "B3", "values": [{"measurement": "stoichiometry N", "setting": "[5]", "value": 2}]}
{"molecule": "B4", "values": [{"measurement": "stoichiometry N", "setting": "[3]", "value": 2}]}
